Measured values reported in US20130171217A1, “ENZYMATIC PERACID GENERATION FOR USE IN SKIN CARE PRODUCTS” (E I DU PONT DE NEMOURS AND COMPANY, priority 2010, published 2013).

Experiments:
[1] = Two-step treatment of hair tresses, tress tensile strength
Experimental: Medium brown hair was used in these examples. Stock hair swatches were custom made by International Hair Importers (Glendale, N.Y.). Each swatch had 1500 mg of 50% reversed hair, soft glued in the middle with glue thickness of 1 mm and width of 2 cm.
Test-hair-sample consisted of a hair bundle of approximately 50 mg hair of 4 cm length, held together by a 1 mm thick, 2 mm wide and 5 mm long glue strip. A sheet of BYTAC® (TYPE VF-81, Saint-Gobain Performance Plastics, Wayne, N.J.) was attached to a polystyrene cover-plate, providing a TEFLON®-coated test-surface for mounting and treatment of hair. A strip of double-sided scotch tape was applied on the BYTAC® surface, closer to the top edge of the test plate. The glued side of the test-hair-sample was pressed down on the exposed side of the tape, making sure that the unglued hair strands are completely clear of the tape. The glued parts of the tress and exposed double-sided tape surface were covered with a strip of clear single-sided tape. Although the method is described for a single test-hair-tress, 4 tresses were used for each test condition and were placed side-by-side during the entire treatment.
The test tress was wetted by tap water and the excess water was absorbed with a paper towel. The calculated volume of the enzyme formulation was applied and was worked in gently and evenly into hair strands with gloved fingers for ˜30 seconds and let the formulation soak in for the specified deposition time. The tress was then rinsed with tap water agitated through a peristaltic pump for 20 seconds, to completely remove the surfactant.
Excess water was removed from the wetted tress from the previous step by absorption on a paper towel. The requisite volumes of the substrates (H2O2 and triacetin (TA)) were applied onto the test-tress. The mixture was rubbed into the hair strand firmly and evenly, with gloved finger for ˜1 min. The tress was left semi-covered for the specified treatment time.
Test-hair was washed with a diluted surfactant solution by rubbing the surfactant into hair with enough vigor to foam, for one minute to remove all traced of oils and residues arising during tress preparation or from previous cycles. Hair was rinsed thoroughly with tap water, agitated through a peristaltic pump for 35 seconds, while gently opening tresses with gloved fingers to ascertain that all adherents (surfactant or moisturizer) are dislodged. Excess moisture was absorbed by pressing down the paper towel over the tress. This would mark the end of one cycle. Treatment cycles were repeated starting from the enzyme-deposition step until the desired number of cycles was reached.
Two samples from each experiment were subjected to Tensile assay as described in Example 23, to determine the extent of hair-weakening.
The following experiments followed the general method of treatment disclosed in Example 25. Solutions were made in 5% TWEEN®-20 surfactant in 50 mM citrate buffer at pH 6. […] H2O2 and triacetin, formulations were made according to Example 24, in 20% LUBRIDERM® lotion in 50 mM citrate buffer at pH 6. After application of the reagents, the treatment was allowed to continue for 24 hr, as in daily application. TWEEN®-20 (5% in 50 mM citrate buffer at pH 6) was used for the final surfactant wash. The treatment was repeated for 15 additional cycles, 16 days in all.
The following experiments followed the general method of treatment disclosed in Example 26, except that after application of the reagents, the treatment was allowed to continue for shorter times per cycle rather than 24 hours per cycle.
Enzyme solutions were made in 0.5% or 5% TWEEN®-20 surfactant in 50 mM citrate buffer at pH 6. […] H2O2 and triacetin, formulations were made according to Example 24, in 20% LUBRIDERM® lotion (Johnson & Johnson, New Brunswick, N.J.) in 50 mM citrate buffer at pH 6. After application of 400 μL each of the reagents, the treatment was allowed to continue for 20-40 min. […]

[2] = PAA generation with different perhydrolases and substrates, HPLC Karst assay; type: biochemical
Experimental: HC1121 is a CE-7 class carbohydrate esterase from Thermotoga maritima (C2775-HC263; SEQ ID NO: 288), and HC1169 is an aryl esterase from M. smegmatis (ArE-HC263; SEQ ID NO: 323). Both enzymes were tested for their perhydrolytic activity with substrates triacetin or propylene glycol diacetate (PGDA, Aldrich 528072) and hydrogen peroxide between pH 5 and pH 7.2. Enzyme free reactions for some reaction conditions were run to determine the non-enzymatic generation of peracetic acid as well. At the end of reaction, the reaction was quenched by acidification 10 or 25 fold with 100 mM H3PO4. The quenched samples were filtered using a NANOSEP® MF centrifugal device (30K Molecular Weight Cutoff (MWCO), Pall Life Sciences, Ann Arbor, Mich., P/N OD030C35) by centrifugation for 6 min at 12,000 rpm. The filtrates were assayed by HPLC Karst assay in duplicates to determine the amount of peracetic acid (PAA) generated at those reaction conditions.

[3] = 1500 μg/mL (E/H 6), deposition 5 min, 0.5 M H2O2, 1 M TA, 2 hr/cycle

B1: C277S: non-targeted C277S variant of the Thermotoga maritima perhydrolase, un-targeted control (protein, listed as Thermotoga maritima)
chain: MAFFDLPLEELKKYRPERYEEKDFDEFWEETLAESEKFPLDPVFERMESHLKTVEAYDVTFSGYRGQRIKGWLLVPKLEEEKLPCVVQYIGYNGGRGFPHDWLFWPSMGYICFVMDTRGQGSGWLKGDTPDYPEGPVDPQYPGFMTRGILDPRTYYYRRVFTDAVRAVEAAASFPQVDQERIVIAGGSQGGGIALAVSALSKKAKALLCDVPFLCHFRRAVQLVDTHPYAEITNFLKTHRDKEEIVFRTLSYFDGVNFAARAKIPALFSVGLMDNISPPSTVFAAYNYYAGPKEIRIYPYNNHEGGGSFQAVEQVKFLKKLFEKG
- TS [1, 3]: 2.84 N/mgH

B2: C277S-HC263: C277S variant of Thermotoga maritima perhydrolase fused via a flexible linker to hair-binding domain HC263 (protein)
chain: MAFFDLPLEELKKYRPERYEEKDFDEFWEETLAESEKFPLDPVFERMESHLKTVEAYDVTFSGYRGQRIKGWLLVPKLEEEKLPCVVQYIGYNGGRGFPHDWLFWPSMGYICFVMDTRGQGSGWLKGDTPDYPEGPVDPQYPGFMTRGILDPRTYYYRRVFTDAVRAVEAAASFPQVDQERIVIAGGSQGGGIALAVSALSKKAKALLCDVPFLCHFRRAVQLVDTHPYAEITNFLKTHRDKEEIVFRTLSYFDGVNFAARAKIPALFSVGLMDNISPPSTVFAAYNYYAGPKEIRIYPYNNHEGGGSFQAVEQVKFLKKLFEKGGPGSGGAGSPGSAGGPGSPSAQSQLPDKHSGLHERAPQRYGPEPEPEPEPIPEPPKEAPVVIEKPKPKPKPKPKPPAHDHKNQKETHQRHAAGSGGGGSPHHHHHH
- PAA ([2]; 10 μg/mL enzyme, 250 mM triacetin, 100 mM H2O2, 20% LUBRIDERM® in pH 7.2, 100 mM phosphate buffer, 60 min): 4451 ppm
- PAA ([2]; 50 μg/mL enzyme, 100 mM triacetin, 250 mM H2O2, pH 5, 50 mM citrate buffer, 5 min): 277 ppm
- PAA ([2]; 50 μg/mL enzyme, 100 mM triacetin, 250 mM H2O2, pH 5.6, 50 mM citrate buffer, 5 min): 1222 ppm
- PAA ([2]; 50 μg/mL enzyme, 100 mM triacetin, 250 mM H2O2, pH 6, 50 mM citrate buffer, 5 min): 2350 ppm
- PAA ([2]; 50 μg/mL enzyme, 100 mM triacetin, 250 mM H2O2, pH 6.6, 50 mM citrate-phosphate buffer, 5 min): 4067 ppm
- PAA ([2]; 50 μg/mL enzyme, 100 mM triacetin, 250 mM H2O2, pH 7, 50 mM pyrophosphate buffer, 5 min): 4832 ppm
- TS ([1]; 750 μg/mL (E/H 3), 0.25 M H2O2, 0.25 M TA, 20 min/cycle, 16 cycles): 2.64 N/mgH
- TS ([1]; 750 μg/mL (E/H 3), 0.25 M H2O2, 0.25 M TA, 24 hr/cycle, 16 cycles): 1.51 N/mgH
- TS ([1]; 750 μg/mL (E/H 3), 0.5 M H2O2, 0.5 M TA, 20 min/cycle, 16 cycles): 2.09 N/mgH
- TS ([1]; 750 μg/mL (E/H 3), 0.5 M H2O2, 0.5 M TA, 24 hr/cycle, 16 cycles): 0.25 N/mgH
- TS ([1]; 750 μg/mL (E/H 3), 0.75 M H2O2, 1 M TA, 40 min/cycle): 2.49 N/mgH
- Predicted TS for 24 h/cycle ([1]; 750 μg/mL, from 40 min/cycle): 1.00 ^ N/mgH
- TS ([1]; 1500 μg/mL (E/H 5), 0.75 M H2O2, 1 M TA, 20 min/cycle): 2.47 N/mgH
- TS [1, 3]: 1.62 N/mgH
- Predicted TS for 24 h/cycle ([1]; 1500 μg/mL, from 20 min/cycle): 0.97 ^ N/mgH
- TS ([1]; 1750 μg/mL (E/H 7), 0.25 M H2O2, 0.25 M TA, 20 min/cycle, 16 cycles): 2.33 N/mgH
- TS ([1]; 1750 μg/mL (E/H 7), 0.25 M H2O2, 0.25 M TA, 24 hr/cycle, 16 cycles): 0.77 N/mgH
- TS ([1]; 1750 μg/mL (E/H 7), 0.5 M H2O2, 0.5 M TA, 20 min/cycle, 16 cycles): 1.90 N/mgH
- TS ([1]; 1750 μg/mL (E/H 7), 0.5 M H2O2, 0.5 M TA, 24 hr/cycle, 16 cycles): 0.14 N/mgH
- TS ([1]; 1750 μg/mL (E/H 7), 0.75 M H2O2, 1 M TA, 40 min/cycle): 1.65 N/mgH
- Predicted TS for 24 h/cycle ([1]; 1750 μg/mL, from 40 min/cycle, (d) predicted disintegration of hair): −0.13(d) N/mgH
- TS ([1]; 2500 μg/mL (E/H 10), 0.75 M H2O2, 1 M TA, 20 min/cycle): 1.73 N/mgH
- TS ([1]; 2500 μg/mL (E/H 10), 0.75 M H2O2, 1 M TA, 40 min/cycle): 1.67 N/mgH
- TS ([1]; 2500 μg/mL (E/H 10), 20 min/cycle, 1 cycle): 3.44 N/mgH
- TS ([1]; 2500 μg/mL, 4 cycles): 3.13 N/mgH
- TS ([1]; 2500 μg/mL, 8 cycles): 2.34 N/mgH
- TS ([1]; 2500 μg/mL, 12 cycles): 1.66 N/mgH
- TS ([1]; 2500 μg/mL, 16 cycles): 0.95 N/mgH
- Predicted TS for 24 h/cycle ([1]; 2500 μg/mL, from 20 min/cycle, (d) predicted disintegration of hair in 16 × 24 h/cycle): −0.02(d) N/mgH
- Predicted TS for 24 h/cycle ([1]; 2500 μg/mL, from 40 min/cycle, (d) predicted disintegration of hair): −0.10(d) N/mgH
